Literature values as cited in paper PMC3901638.

Target: PEDF-R (Homo sapiens) (UniProt Q96AD5)
Experiment: Surface Plasmon Resonance

Chain of UniProt Q96AD5 (Q96AD5 whole entry): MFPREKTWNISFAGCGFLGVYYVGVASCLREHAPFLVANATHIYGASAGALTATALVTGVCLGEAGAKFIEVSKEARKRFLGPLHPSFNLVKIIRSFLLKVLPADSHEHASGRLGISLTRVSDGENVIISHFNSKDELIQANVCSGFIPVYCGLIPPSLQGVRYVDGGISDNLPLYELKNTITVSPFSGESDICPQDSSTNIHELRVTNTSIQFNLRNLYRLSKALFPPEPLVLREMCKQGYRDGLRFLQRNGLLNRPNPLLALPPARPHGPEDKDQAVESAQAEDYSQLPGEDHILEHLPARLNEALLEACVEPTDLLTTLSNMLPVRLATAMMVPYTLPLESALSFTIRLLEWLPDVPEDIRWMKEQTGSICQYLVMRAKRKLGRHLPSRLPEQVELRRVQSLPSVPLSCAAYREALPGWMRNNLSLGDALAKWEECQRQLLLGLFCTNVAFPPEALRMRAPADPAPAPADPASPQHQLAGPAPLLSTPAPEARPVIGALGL

Kd: 3 nM
Substance: PEDF (from UniProt P36955)
